Test results published in US20230416330A1, “Optimized GIP Peptide Analogues” (Antag Therapeutics ApS, priority 2019, published 2023).
Starred links: 1 amine or outer side, 2 acyl side, 3 side chain; linkers in the order of their positions; H or OH if unused. Non-standard residues stand in square brackets, D forms with d. Groups on a side chain read outwards from the residue. No end group written: not given here. *: point of attachment. C18 diacid = O=C(O)CCCCCCCCCCCCCCCCC(=O)*; C16 diacid = O=C(O)CCCCCCCCCCCCCCC(=O)*; γGlu = O=C(O)[C@H](CCC(=O)[*:2])N[*:1]; Glutaryl = O=C(CCCC(=O)[*:2])[*:1]; AEEA = NCCOCCOCC(=O)O; Aib = CC(C)(N)C(=O)O

B1: AT708 (peptide)
peptide: Glutaryl-GTFISEYSI[Aib]MEKIK([AEEA-AEEA-γGlu-C18 diacid])QQEFVEWLLAQKPSSGAPPPS-OH
SMILES: CC[C@H](C)[C@H](NC(=O)[C@H](CCCCN)NC(=O)[C@H](CCC(=O)O)NC(=O)[C@H](CCSC)NC(=O)C(C)(C)NC(=O)[C@@H](NC(=O)[C@H](CO)NC(=O)[C@H](Cc1ccc(O)cc1)NC(=O)[C@H](CCC(=O)O)NC(=O)[C@H](CO)NC(=O)[C@@H](NC(=O)[C@H](Cc1ccccc1)NC(=O)[C@@H](NC(=O)CNC(=O)CCCC(=O)O)[C@@H](C)O)[C@@H](C)CC)[C@@H](C)CC)C(=O)N[C@@H](CCCCNC(=O)COCCOCCNC(=O)COCCOCCNC(=O)CC[C@H](NC(=O)CCCCCCCCCCCCCCCCC(=O)O)C(=O)O)C(=O)N[C@@H](CCC(N)=O)C(=O)N[C@@H](CCC(N)=O)C(=O)N[C@@H](CCC(=O)O)C(=O)N[C@@H](Cc1ccccc1)C(=O)N[C@H](C(=O)N[C@@H](CCC(=O)O)C(=O)N[C@@H](Cc1c[nH]c2ccccc12)C(=O)N[C@@H](CC(C)C)C(=O)N[C@@H](CC(C)C)C(=O)N[C@@H](C)C(=O)N[C@@H](CCC(N)=O)C(=O)N[C@@H](CCCCN)C(=O)N1CCC[C@H]1C(=O)N[C@@H](CO)C(=O)N[C@@H](CO)C(=O)NCC(=O)N[C@@H](C)C(=O)N1CCC[C@H]1C(=O)N1CCC[C@H]1C(=O)N1CCC[C@H]1C(=O)N[C@@H](CO)C(=O)O)C(C)C
B2: AT714 (peptide)
peptide: EGTFISEYSI[Aib]LEKIK([AEEA-AEEA-γGlu-C18 diacid])QQEFVEWLLAQKPSSGAPPPS-NH2
modifications: N-terminus assumed
SMILES: CC[C@H](C)[C@H](NC(=O)[C@H](CCCCN)NC(=O)[C@H](CCC(=O)O)NC(=O)[C@H](CC(C)C)NC(=O)C(C)(C)NC(=O)[C@@H](NC(=O)[C@H](CO)NC(=O)[C@H](Cc1ccc(O)cc1)NC(=O)[C@H](CCC(=O)O)NC(=O)[C@H](CO)NC(=O)[C@@H](NC(=O)[C@H](Cc1ccccc1)NC(=O)[C@@H](NC(=O)CNC(=O)[C@@H](N)CCC(=O)O)[C@@H](C)O)[C@@H](C)CC)[C@@H](C)CC)C(=O)N[C@@H](CCCCNC(=O)COCCOCCNC(=O)COCCOCCNC(=O)CC[C@H](NC(=O)CCCCCCCCCCCCCCCCC(=O)O)C(=O)O)C(=O)N[C@@H](CCC(N)=O)C(=O)N[C@@H](CCC(N)=O)C(=O)N[C@@H](CCC(=O)O)C(=O)N[C@@H](Cc1ccccc1)C(=O)N[C@H](C(=O)N[C@@H](CCC(=O)O)C(=O)N[C@@H](Cc1c[nH]c2ccccc12)C(=O)N[C@@H](CC(C)C)C(=O)N[C@@H](CC(C)C)C(=O)N[C@@H](C)C(=O)N[C@@H](CCC(N)=O)C(=O)N[C@@H](CCCCN)C(=O)N1CCC[C@H]1C(=O)N[C@@H](CO)C(=O)N[C@@H](CO)C(=O)NCC(=O)N[C@@H](C)C(=O)N1CCC[C@H]1C(=O)N1CCC[C@H]1C(=O)N1CCC[C@H]1C(=O)N[C@@H](CO)C(N)=O)C(C)C
B3: AT713 (peptide)
peptide: Glutaryl-GTFISEYSI[Aib]LEKIK([AEEA-AEEA-γGlu-C18 diacid])QQEFVEWLLAQKPSSGAPPPS-NH2
SMILES: CC[C@H](C)[C@H](NC(=O)[C@H](CCCCN)NC(=O)[C@H](CCC(=O)O)NC(=O)[C@H](CC(C)C)NC(=O)C(C)(C)NC(=O)[C@@H](NC(=O)[C@H](CO)NC(=O)[C@H](Cc1ccc(O)cc1)NC(=O)[C@H](CCC(=O)O)NC(=O)[C@H](CO)NC(=O)[C@@H](NC(=O)[C@H](Cc1ccccc1)NC(=O)[C@@H](NC(=O)CNC(=O)CCCC(=O)O)[C@@H](C)O)[C@@H](C)CC)[C@@H](C)CC)C(=O)N[C@@H](CCCCNC(=O)COCCOCCNC(=O)COCCOCCNC(=O)CC[C@H](NC(=O)CCCCCCCCCCCCCCCCC(=O)O)C(=O)O)C(=O)N[C@@H](CCC(N)=O)C(=O)N[C@@H](CCC(N)=O)C(=O)N[C@@H](CCC(=O)O)C(=O)N[C@@H](Cc1ccccc1)C(=O)N[C@H](C(=O)N[C@@H](CCC(=O)O)C(=O)N[C@@H](Cc1c[nH]c2ccccc12)C(=O)N[C@@H](CC(C)C)C(=O)N[C@@H](CC(C)C)C(=O)N[C@@H](C)C(=O)N[C@@H](CCC(N)=O)C(=O)N[C@@H](CCCCN)C(=O)N1CCC[C@H]1C(=O)N[C@@H](CO)C(=O)N[C@@H](CO)C(=O)NCC(=O)N[C@@H](C)C(=O)N1CCC[C@H]1C(=O)N1CCC[C@H]1C(=O)N1CCC[C@H]1C(=O)N[C@@H](CO)C(N)=O)C(C)C
B4: AT707 (peptide)
peptide: Glutaryl-GTFISEYSIALEKIK([AEEA-AEEA-γGlu-C18 diacid])QQEFVEWLLAQKPSSGAPPPS-OH
SMILES: CC[C@H](C)[C@H](NC(=O)[C@H](CO)NC(=O)[C@H](Cc1ccc(O)cc1)NC(=O)[C@H](CCC(=O)O)NC(=O)[C@H](CO)NC(=O)[C@@H](NC(=O)[C@H](Cc1ccccc1)NC(=O)[C@@H](NC(=O)CNC(=O)CCCC(=O)O)[C@@H](C)O)[C@@H](C)CC)C(=O)N[C@@H](C)C(=O)N[C@@H](CC(C)C)C(=O)N[C@@H](CCC(=O)O)C(=O)N[C@@H](CCCCN)C(=O)N[C@H](C(=O)N[C@@H](CCCCNC(=O)COCCOCCNC(=O)COCCOCCNC(=O)CC[C@H](NC(=O)CCCCCCCCCCCCCCCCC(=O)O)C(=O)O)C(=O)N[C@@H](CCC(N)=O)C(=O)N[C@@H](CCC(N)=O)C(=O)N[C@@H](CCC(=O)O)C(=O)N[C@@H](Cc1ccccc1)C(=O)N[C@H](C(=O)N[C@@H](CCC(=O)O)C(=O)N[C@@H](Cc1c[nH]c2ccccc12)C(=O)N[C@@H](CC(C)C)C(=O)N[C@@H](CC(C)C)C(=O)N[C@@H](C)C(=O)N[C@@H](CCC(N)=O)C(=O)N[C@@H](CCCCN)C(=O)N1CCC[C@H]1C(=O)N[C@@H](CO)C(=O)N[C@@H](CO)C(=O)NCC(=O)N[C@@H](C)C(=O)N1CCC[C@H]1C(=O)N1CCC[C@H]1C(=O)N1CCC[C@H]1C(=O)N[C@@H](CO)C(=O)O)C(C)C)[C@@H](C)CC
B5: AT712 (peptide)
peptide: EGTFISEYSI[Aib]LDKIK([AEEA-AEEA-γGlu-C18 diacid])QQDFVEWLLAQKPSSGAPPPS-OH
modifications: N-terminus assumed
SMILES: CC[C@H](C)[C@H](NC(=O)[C@H](CCCCN)NC(=O)[C@H](CC(=O)O)NC(=O)[C@H](CC(C)C)NC(=O)C(C)(C)NC(=O)[C@@H](NC(=O)[C@H](CO)NC(=O)[C@H](Cc1ccc(O)cc1)NC(=O)[C@H](CCC(=O)O)NC(=O)[C@H](CO)NC(=O)[C@@H](NC(=O)[C@H](Cc1ccccc1)NC(=O)[C@@H](NC(=O)CNC(=O)[C@@H](N)CCC(=O)O)[C@@H](C)O)[C@@H](C)CC)[C@@H](C)CC)C(=O)N[C@@H](CCCCNC(=O)COCCOCCNC(=O)COCCOCCNC(=O)CC[C@H](NC(=O)CCCCCCCCCCCCCCCCC(=O)O)C(=O)O)C(=O)N[C@@H](CCC(N)=O)C(=O)N[C@@H](CCC(N)=O)C(=O)N[C@@H](CC(=O)O)C(=O)N[C@@H](Cc1ccccc1)C(=O)N[C@H](C(=O)N[C@@H](CCC(=O)O)C(=O)N[C@@H](Cc1c[nH]c2ccccc12)C(=O)N[C@@H](CC(C)C)C(=O)N[C@@H](CC(C)C)C(=O)N[C@@H](C)C(=O)N[C@@H](CCC(N)=O)C(=O)N[C@@H](CCCCN)C(=O)N1CCC[C@H]1C(=O)N[C@@H](CO)C(=O)N[C@@H](CO)C(=O)NCC(=O)N[C@@H](C)C(=O)N1CCC[C@H]1C(=O)N1CCC[C@H]1C(=O)N1CCC[C@H]1C(=O)N[C@@H](CO)C(=O)O)C(C)C

Target: T1, human GIP receptor (human, UniProt P48546 22-466)
T1 sequence (looked up): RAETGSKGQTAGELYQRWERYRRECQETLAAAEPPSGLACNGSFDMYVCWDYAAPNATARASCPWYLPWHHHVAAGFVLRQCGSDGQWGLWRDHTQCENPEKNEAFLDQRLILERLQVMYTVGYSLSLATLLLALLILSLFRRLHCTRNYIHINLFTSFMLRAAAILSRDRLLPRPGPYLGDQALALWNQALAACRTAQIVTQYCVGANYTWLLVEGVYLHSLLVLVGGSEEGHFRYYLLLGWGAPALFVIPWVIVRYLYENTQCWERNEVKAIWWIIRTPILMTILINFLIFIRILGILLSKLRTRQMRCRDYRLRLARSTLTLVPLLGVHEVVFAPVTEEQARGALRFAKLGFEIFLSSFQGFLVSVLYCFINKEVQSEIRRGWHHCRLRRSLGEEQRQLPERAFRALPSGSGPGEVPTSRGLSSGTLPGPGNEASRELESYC
Assay: cell-based or functional assay

Binder	nM (Kb, Gaddum assay, cAMP) [nM]	pKb (Gaddum assay, cAMP)
EGTFISEYSI[Aib]MEKIK([AEEA-AEEA-γGlu-C18 diacid])QQEFVEWLLAQKPSSGAPPPS-OH [AT709]	0.24	9.6
B1	0.2	9.7
B2	0.43	9.4
EGTFISEYSIAMEKIK([AEEA-AEEA-γGlu-C18 diacid])QQEFVEWLLAQKPSSGAPPPS-OH [AT710]	0.73	9.1
B3	0.31	9.5
B4	0.28	9.6
Glutaryl-GTFISDYSI[Aib]MDKIK(C16 diacid)QQDFVEWLLAQKPSSGAPPPS-OH [AT715]	0.19	9.7
B5	0.39	9.4
